Reference: patent publication US20060029995A1, “Novel class of metacaspases” (Vlaams Interuniversitair Instituut Voor Biotechnologie VZW, priority 2003, published 2006)
*: point of attachment. AMC = Cc1cc(=O)oc2cc(N*)ccc12; Cbz = O=C(OCc1ccccc1)*; Boc = CC(C)(C)OC(=O)*

What was measured:
[1] = tested on: Lysates from 293T cells overexpressing metacaspases; assay: Caspase substrates incubated with lysates from 293T cells overexpressing metacaspases; format: biochemical, Arabidopsis thaliana
Experimental: For mammalian overexpression, cDNAs for metacaspases were cloned into pDEST26 (Invitrogen, Gaithersburg, Md., USA), resulting in an N-terminal HIS6-fusion under transcriptional control of the constitutive CMV promoter. Human embryonic kidney cells 293T were cultured in DMEM supplemented with 2 mM L-glutamine, 10% fetal calf serum, 106 U/i streptomycin, […] penicillin and 0.4 mM sodium pyruvate. 5×10^5 cells (6 well plate) were seeded and next day transfected using the calcium phosphate method as described previously (Van de Craen et al., 1998).
Lysates from 293T cells overexpressing metacaspases were also incubated with different synthetic fluorigenic substrates for caspases, namely acetyl-Asp-Glu-Val-Asp-aminomethylcoumarin (Ac-DEVD-amc), acetyl-Ile-Glu-Thr-Asp-aminomethylcoumarin (Ac-IETD-amc), Acetyl-Leu-Glys-His-Asp-aminomethylcoumarin (Ac-LEHD-amc), acetyl-Trp-Glu-His-Asp-aminomethylcoumarin (Ac-WEHD-amc), Acetyl-Tyr-Val-Ala-Asp-aminomethylcoumarin (Ac-YVAD-amc) and benzyloxycarbonyl-Val-Ala-Asp-aminomethylcoumarin (zVAD-amc).

Atmc9 = target: T1, Atmc9 (Arabidopsis thaliana, UniProt Q9FYE1); assay: kcat/Km of artificial substrates of Atmc9; format: biochemical; conditions: summary of Table 1
T1 construct: it indeed consists of amino acids 184 to 325 (calculated mass 15427 Da); made in house; host or cells: E. coli BL21(DE3), pDEST17, Ni-NTA purified
T1 sequence (Q9FYE1 1-183 limits assumed): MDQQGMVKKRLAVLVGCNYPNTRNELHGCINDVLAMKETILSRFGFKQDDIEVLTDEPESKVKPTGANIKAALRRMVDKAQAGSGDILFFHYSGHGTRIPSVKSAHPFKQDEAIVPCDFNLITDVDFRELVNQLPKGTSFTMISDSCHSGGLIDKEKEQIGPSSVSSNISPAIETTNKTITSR
T1 sequence (Q9FYE1 184-325 limits assumed): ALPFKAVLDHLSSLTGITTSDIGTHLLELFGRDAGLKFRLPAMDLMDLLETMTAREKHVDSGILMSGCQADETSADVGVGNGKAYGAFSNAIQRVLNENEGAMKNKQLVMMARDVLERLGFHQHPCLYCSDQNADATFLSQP
Experimental: The activity assay buffer used was composed of 50 mM MES pH 5.3, 10% (w/v) sucrose, 0.1% (w/v) 3-[(3-cholamidopropyl)dimethylammonio]-1-propanesulfonate [CHAPS], 10 mM DTT.
Release of free AMC was determined in a time course using a FLUOstar Optima fluorescence plate reader (BMB Lab Technologies, Offenburg, Del.). After total hydrolysis of the substrates, kcatlKm was calculated using the following formula: kcat/Km=kobsIEt, where kobs is determined as the decrease per second of the natural logarithm of substrate left, and Et is the concentration of enzyme active sites in the reaction.

metacaspase 3 = target: T2, metacaspase 3 (Arabidopsis thaliana, UniProt Q9FMG1); assay: Cleavage of fluorescent artificial substrates by purified metacaspase 3; format: biochemical; conditions: assay buffers of pHs ranging from 4.5 to 9.0 (MES 50 mM)
T2 construct: made in house; host or cells: bacterial production, pDEST17 (E. coli by the general method)
T2 sequence (Q9FMG1 1-362 R151K/L157V/V158I/Q177E): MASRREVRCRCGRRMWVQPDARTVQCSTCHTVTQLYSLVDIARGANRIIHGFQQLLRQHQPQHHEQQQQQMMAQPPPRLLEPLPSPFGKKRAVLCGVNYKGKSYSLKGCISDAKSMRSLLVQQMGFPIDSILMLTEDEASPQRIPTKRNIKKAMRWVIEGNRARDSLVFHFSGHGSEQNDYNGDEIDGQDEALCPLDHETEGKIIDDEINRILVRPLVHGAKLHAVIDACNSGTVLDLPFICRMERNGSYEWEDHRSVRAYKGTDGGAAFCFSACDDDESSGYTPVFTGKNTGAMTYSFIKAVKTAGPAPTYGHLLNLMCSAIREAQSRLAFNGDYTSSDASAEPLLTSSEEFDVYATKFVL
Description: For generation of the prodomain deletion mutant of Arabidopsis thaliana metacaspase 3 (MC3ΔN), residues 1 to 91 were replaced by a methionine residue by PCR, using 5′-[…]-3′ (SEQ ID NO:43) as the forward primer and 5′-[…]-3′ (SEQ ID NO:17) as the reverse primer. 5′ extensions used for Gateway™ (Invitrogen) cloning were 5′-[…]-3′ (SEQ ID NO:44) for forward primers and 5′-[…]-3′ (SEQ ID NO:45) for reverse primers. For bacterial production, the cDNA's were cloned into the bacterial expression vector pDEST17™ (Invitrogen), resulting in the amino-terminal translational addition of the following HIS6 tag-containing sequence: […] (SEQ ID NO:37).
Activity of purified metacaspase 3 was tested with different fluorescent substrates in assay buffers of pHs ranging from 4.5 to 9.0 (MES 50 mM). The substrates tested were: Ac-DEVD-AMC, Z-VAD-AMC, Boc-GRR-AMC, Boc-GKR-AMC, Z-FR-AMC and H-AFK-AMC. Only Z-FR-AMC was cut by metacaspase 3.

Row | Substance | activity of lysates on synthetic fluorigenic caspase substrates [1] | quality as substrate for Atmc9 (Atmc9) | cleavage by metacaspase 3 (metacaspase 3)
1 | Acetyl-Leu-Glys-His-Asp-aminomethylcoumarin [Ac-LEHD-amc] | no significant increase in activity | – | –
2 | Acetyl-Tyr-Val-Ala-Asp-aminomethylcoumarin (Ac-YVAD-{AMC}; SMILES CC(=O)N[C@@H](Cc1ccc(O)cc1)C(=O)N[C@H](C(=O)N[C@@H](C)C(=O)N[C@@H](CC(=O)O)C(=O)Nc1ccc2c(C)cc(=O)oc2c1)C(C)C) [Ac-YVAD-amc] | no significant increase in activity | – | –
3 | H-Ala-Phe-Lys-7-amido-4-methylcoumarin (H-Ala-Phe-Lys-{AMC}; SMILES Cc1cc(=O)oc2cc(NC(=O)[C@H](CCCCN)NC(=O)[C@H](Cc3ccccc3)NC(=O)[C@H](C)N)ccc12) [H-AFK-AMC] | – | less efficiently cleaved | No activity was detected
4 | acetyl-Asp-Glu-Val-Asp-aminomethylcoumarin [Ac-DEVD-AMC] | no significant increase in activity | – | No activity was detected
5 | acetyl-Ile-Glu-Thr-Asp-aminomethylcoumarin (Ac-IETD-{AMC}; SMILES CC[C@H](C)[C@H](NC(C)=O)C(=O)N[C@@H](CCC(=O)O)C(=O)N[C@H](C(=O)N[C@@H](CC(=O)O)C(=O)Nc1ccc2c(C)cc(=O)oc2c1)[C@@H](C)O) [Ac-IETD-amc] | no significant increase in activity | – | –
6 | acetyl-Trp-Glu-His-Asp-aminomethylcoumarin (Ac-WEHD-{AMC}; SMILES CC(=O)N[C@@H](Cc1c[nH]c2ccccc12)C(=O)N[C@@H](CCC(=O)O)C(=O)N[C@@H](Cc1c[nH]cn1)C(=O)N[C@@H](CC(=O)O)C(=O)Nc1ccc2c(C)cc(=O)oc2c1) [Ac-WEHD-amc] | no significant increase in activity | – | –
7 | benzyloxycarbonyl-Val-Ala-Asp-aminomethylcoumarin (Cbz-Val-Ala-Asp-{AMC}) [Z-VAD-AMC] | no significant increase in activity | – | No activity was detected
8 | t-butyloxycarbonyl-Gly-Arg-Arg-7-amido-4-methylcoumarin (Boc-Gly-Arg-Arg-{AMC}) [Boc-GRR-AMC] | – | good substrates | No activity was detected
9 | t-butyloxycarbonyl-Gly-Lys-Arg-7-amido-4-methylcoumarin (Boc-Gly-Lys-Arg-{AMC}; SMILES Cc1cc(=O)oc2cc(NC(=O)[C@H](CCCNC(=N)N)NC(=O)[C@H](CCCCN)NC(=O)CNC(=O)OC(C)(C)C)ccc12) [Boc-GKR-AMC] | – | somewhat less good substrate | No activity was detected
